# Results published in patent US20180141972.
# B1: wild-type TEV protease, untagged (protein)
# chain: GESLFKGPRDYNPISSTICHLTNESDGHTTSLYGIGFGPFIITNKHLFRRNNGTLLVQSLHGVFKVKNTTTLQQHLIDGRDMIIIRMPKDFPPFPQKLKFREPQREERICLVTTNFQTKSMSSMVSDTSCTFPSSDGIFWKHWIQTKDGQCGSPLVSTRDGFIVGIHSASNFTNTNNYFTSVPKNFMELLTNQEAQQWVSGWRLNADSVLWGGHKVFMSKPEEPFQPVKEATQLMNELVYSQ
# B2: HIS-TEV (protein)
# chain: B1 chain
# B3: SplB protease with full-length ARVCF peptide tag at C-terminus (protein)
# chain: ENNVTKVKDTNIFPYTGVVAFKSATGFVVGKNTILTNKHVSKNYKVGDRITAHPNSDKGNGGIYSIKKIINYPGKEDVSVIQVEERAIERGPKGFNFNDNVTPFKYAAGAKAGERIKVIGYPHPYKNKYVLYESTGPVMSVEGSSIVYSAHTESGNSGSPVLNSNNELVGIHFASDVKNDDNRNAYGVYFTPEIKKFIAENIDKPQPVDSWV
# B4: HIS-SplB-ARVC-pep (protein)
# chain: B3 chain
# B5: SplB protease with shortened ARVC-pep tag (the least shortened of the 3 progressively shortened peptide tags) (protein)
# chain: ENNVTKVKDTNIFPYTGVVAFKSATGFVVGKNTILTNKHVSKNYKVGDRITAHPNSDKGNGGIYSIKKIINYPGKEDVSVIQVEERAIERGPKGFNFNDNVTPFKYAAGAKAGERIKVIGYPHPYKNKYVLYESTGPVMSVEGSSIVYSAHTESGNSGSPVLNSNNELVGIHFASDVKNDDNRNAYGVYFTPEIKKFIAENIDK
# B6: Commercial SplB protease, non-tagged (protein)
# chain: B5 chain
# B7: TEV protease fused to the optimised 4-amino acid truncated ARVCF peptide (protein)
# chain: GESLFKGPRDYNPISSTICHLTNESDGHTTSLYGIGFGPFIITNKHLFRRNNGTLLVQSLHGVFKVKNTTTLQQHLIDGRDMIIIRMPKDFPPFPQKLKFREPQREERICLVTTNFQTKSMSSMVSDTSCTFPSSDGIFWKHWIQTKDGQCGSPLVSTRDGFIVGIHSASNFTNTNNYFTSVPKNFMELLTNQEAQQWVSGWRLNADSVLWGGHKVFMSKPEEPFQPVKEATQLMNELVYSQDSWV
# B8: HIS-TEV-AP4 (protein)
# chain: B7 chain
# B9: SplB protease with ARVCF peptide truncated by 4 amino acids (DSWV) (protein)
# chain: ENNVTKVKDTNIFPYTGVVAFKSATGFVVGKNTILTNKHVSKNYKVGDRITAHPNSDKGNGGIYSIKKIINYPGKEDVSVIQVEERAIERGPKGFNFNDNVTPFKYAAGAKAGERIKVIGYPHPYKNKYVLYESTGPVMSVEGSSIVYSAHTESGNSGSPVLNSNNELVGIHFASDVKNDDNRNAYGVYFTPEIKKFIAENIDKDSWV
# Tests used:
# [1] = target: ePDZ-b-ENLYFQ-OFP fusion protein
# [2] = target: HIS-ePDZ-b-ENLYFQ-OFP fusion substrate protein
# [3] = target: ePDZ-b-WELQ-OFP fusion substrate
# [4] = target: HIS-ePDZ-b-WELQ-OFP fusion substrate protein
# [5] = target: Spycatcher-WELQ-LSSmOrange fusion protein
# [6] = target: T1, Spycatcher-WELQ-Tem1 fusion protein (Spycatcher followed by a SplB protease site with a P1' methionine and the lactamase Tem1), P62593
# T1 chain: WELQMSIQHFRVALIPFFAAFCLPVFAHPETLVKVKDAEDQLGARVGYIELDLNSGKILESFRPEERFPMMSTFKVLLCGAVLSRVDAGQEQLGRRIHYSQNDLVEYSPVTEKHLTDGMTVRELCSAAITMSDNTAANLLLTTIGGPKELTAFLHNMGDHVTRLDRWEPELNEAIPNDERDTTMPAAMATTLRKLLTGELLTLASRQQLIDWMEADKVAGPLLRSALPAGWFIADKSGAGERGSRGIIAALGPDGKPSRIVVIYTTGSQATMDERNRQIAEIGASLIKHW
protein,measurement,setting,value
B1,"cleavage of the fusion substrate to native OFP (gel, FIG. 6A)",[1],wild-type TEV protease did not show significant cleavage even after 24 hours incubation
same,"generation of native OFP over time (gel, FIG. 6A)",[1],Native OFP (arrowed red) was rapidly generated through use of TEV-AP4 compared to endogenous TEV
B2,"yield of native OFP after on-column cleavage (gel, FIG. 8, lanes 6 and 15)",[2],the yield of native OFP was significantly increased when histidine tagged TEV-AP4 was used compared to histidine tagged TEV
B3,"cleavage efficiency at high protease concentration (gel, FIG. 5, lanes 2-5)",[3],"At high protease concentration, no variation was observed in cleavage efficiency"
same,"cleavage of the fusion substrate to native OFP (gel, FIG. 5)",[3],this was notably more efficient for SplB-AP compared to SplB-COM and SplB fused to a control peptide that does not interact with ePDZ-b (SplB-CON)
same,"cleavage to yield native OFP (gel, FIG. 5)",[3],These tagged proteases all showed improved cleavage to yield native OFP (red arrow) compared to SplB protease tagged with a non-specific C-terminal peptide (SplB-CON) and commercial nontagged SplB protease (SplB-COM)
B4,"on-column cleavage to native OFP (gel, FIG. 7)",[4],"Addition of 30 mM imidazole alleviated this constraint, resulting in improved cleavage efficiencies using histidine tagged ePDZ-b -WELQ-OFP and SplB-AP proteins"
B5,"cleavage efficiency at high protease concentration (gel, FIG. 5, lanes 2-5)",[3],"At high protease concentration, no variation was observed in cleavage efficiency"
same,"cleavage to yield native OFP (gel, FIG. 5)",[3],These tagged proteases all showed improved cleavage to yield native OFP (red arrow) compared to SplB protease tagged with a non-specific C-terminal peptide (SplB-CON) and commercial nontagged SplB protease (SplB-COM)
B6,"cleavage of the fusion protein to native LSSmOrange (gel, FIG. 4)",[5],A similar experiment with LSSmOrange replacing Tem1 yielded the same result
same,"cleavage of the fusion protein to native Tem1 (gel, FIG. 3)",[6],"Commercial SplB protease, lacking the fused spytag, was only able to produce minimal native Tem1"
same,"cleavage of the fusion substrate to native OFP (gel, FIG. 5)",[3],Neither SplB-COM or Spl-CON was able to completely digest the fusion substrate
B7,"cleavage of the fusion substrate to native OFP (gel, FIG. 6A)",[1],The results show clearly improved cleavage when TEV is fused to the optimised 4-amino acid truncated ARVCF peptide (TEV-AP4)
same,"generation of native OFP over time (gel, FIG. 6A)",[1],Native OFP (arrowed red) was rapidly generated through use of TEV-AP4 compared to endogenous TEV
same,"incubation time to near complete cleavage (gel, FIG. 6A)",[1],near completion around 2.5 hours
same,"incubation time to notable cleavage (gel, FIG. 6A)",[1],Notable cleavage was observed after only 30 minutes incubation
B8,"yield of native OFP after on-column cleavage (gel, FIG. 8, lanes 6 and 15)",[2],the yield of native OFP was significantly increased when histidine tagged TEV-AP4 was used compared to histidine tagged TEV
B9,"cleavage activity at sub-stoichiometric protease (gel, FIG. 5, lanes 16, 18-19)",[3],"At sub-stoichiometric amounts, 3 and 4 amino acid truncations of the ARVCF peptide showed clear improvements in activity compared to full-length peptide"
same,"cleavage efficiency at high protease concentration (gel, FIG. 5, lanes 2-5)",[3],"At high protease concentration, no variation was observed in cleavage efficiency"
same,"cleavage to yield native OFP (gel, FIG. 5)",[3],These tagged proteases all showed improved cleavage to yield native OFP (red arrow) compared to SplB protease tagged with a non-specific C-terminal peptide (SplB-CON) and commercial nontagged SplB protease (SplB-COM)
